Data published in the supplement of paper PMC12042874.
± gives the uncertainty stated by the source.

test: amyloid nucleation score (Sup35N fusion, yeast selection) (log enrichment); library NNK2; higher = more nucleation; inactive = no reads after selection
In short: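 Sup35N fusions to peptides of 20 random codons were expressed in psi-negative yeast, induced 24 hours with 100 μM copper sulfate, and grown 7 days at 30°C on medium lacking adenine and uracil. Input and output plasmid inserts were sequenced by Illumina. The nucleation score is the DiMSum log enrichment of output over input reads, centred on the mode score of non-aggregating sequences. Sequences with under 100 input reads were excluded.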

Substance	amyloid nucleation score
YKILQFETSFRT	-0.977 ± 0.63
YKLAFQSYIDGLLIL	inactive
YKLGVKPMKAG	-0.224 ± 0.79
YKNVAFCFVRMFFEGHSINC	-1.45 ± 0.76
YKSSGLLSYTSIGNVDIYFV	6.26 ± 0.079
YKSVERTASRMIQIEVFWEY	inactive
YKTFFLVASAKVNEAPGQRG	inactive
YKWVVPDWSWVLEMALSLPT	0.346 ± 0.5
YLCVYIRLYFMPLRYWKKMC	-0.606 ± 0.44
YLDAHILHE	4.54 ± 0.087
YLFDLVFILEQYFWL	2.85 ± 0.049
YLGAGPSNILCHPFISAGSN	inactive
YLLFTMRNLLILGRQGRSSL	-0.905 ± 0.45
YLLVLFGSGTYITPTLLRIN	-1.55 ± 0.49
YLNGLTYWDIMLPWAII	-0.324 ± 1.1
YLRTYLW	-0.208 ± 0.49
YLRVKMPVIRVIVR	inactive
YLSAAVKTEVV	0.619 ± 0.37
YLSDNLIAFWIVHNQWMIMA	6.005 ± 0.035
YLTFLNASTSRYKLSLVPRR	4.11 ± 0.082
YLVGCKDSRTSLSSLICIRL	8.842 ± 0.03

Substance	amyloid nucleation score
YLVPFWVVDCFDGLD	0.072 ± 1.1
YLVYKMNNGCLCNIFAPVTE	8.303 ± 0.064
YMIFCLSIYEDDEALGPTER	-0.287 ± 0.21
YMRMIYCMFRGNCWVVIVEA	0.216 ± 0.49
YMSNPSELWKNWILVHYHFC	3.56 ± 0.076
YMSPAH	0.606 ± 0.6
YMTVSRVHISRVCCVYTLNV	5.44 ± 0.064
YMWVCACRMSLIHGLSGHHD	0.536 ± 0.46
YNFDYTLMNYPLKAVPSEW	8.286 ± 0.053
YNISDLSMSYMAIRAYDSGS	-1.38 ± 0.62
YNLSVFQVITAPHEGDNRAW	4.55 ± 0.049
YNMMSKFNIFGYYACKSSWK	1.27 ± 0.14
YNPLLIV	0.082 ± 0.56
YNQRTFVSVSYEWTSGPWVC	0.334 ± 0.33
YNSNFPTLYWG	inactive
YNSPSDWDTIISSIILF	-1.21 ± 1.1
YNTISDWTSLEPYTLVRVLL	1.91 ± 0.064
YNVTYLLRCFSILVSRVLKV	inactive
YPKSLV	-0.698 ± 1.1
YPVCGCRLSRLVHNSTVDKV	0.639 ± 0.46
YQFTGFLLGRVIASIIRHGV	0.023 ± 0.45

Substance	amyloid nucleation score
YQSVRK	-0.022 ± 0.55
YRAAWSSAAG	-0.137 ± 1.1
YRDNCMRNIENSVT	-0.802 ± 0.54
YREACCCNSFACPGATDVGP	9.188 ± 0.046
YRFAGYVTPRFGYKSHNISL	-1.22 ± 1.1
YRGSGLMNTSDFVSVLALVN	inactive
YRLAWGH	-0.363 ± 1.1
YRTCNIDGL	inactive
YRVDSHWANLVLKTSMIWTT	-0.829 ± 0.28
YRWNYWFVVMMRPSSEDYLR	4.951 ± 0.047
YSAVKCFPYRLPLNYAQIGA	0.358 ± 0.53
YSGAYRLHYGFHIIICVCRW	3.21 ± 0.066
YSGLKCALCRCC	1.94 ± 0.3
YSGWFFCNFISLWV	6.529 ± 0.057
YSGWVSDS	inactive
YSHATFSPASNSYQKG	0.146 ± 0.56
YSHSLHVIQKSFFCITVFVM	5.28 ± 0.08
YSIYEYG	1.41 ± 0.15
YSKDSMDSYMMIMFGSVACH	0.681 ± 0.6
YSLWLVVCYLLVCWNINCGT	0.366 ± 0.44
YSNSPCVIYNMKGRGSLLSH	-1.6 ± 0.64

Substance	amyloid nucleation score
YSRGWVHVI	0.384 ± 0.56
YSSTTITFYNWDRVTSRRLA	-0.832 ± 0.44
YSWSRVKFNSL	2.53 ± 0.076
YSYSIRLRCFASRYIFVRVR	0.436 ± 0.66
YTFCKHDVYAISLRFVLAPY	7.304 ± 0.035
YTGHFTSC	-0.496 ± 0.48
YTMGLVSFCLQLGSASFDI	3.56 ± 0.12
YTRSAGGLISL	-0.774 ± 1.1
YTRWWLWWGFNNCWRYWSEK	-0.96 ± 0.55
YTSGSTGRDLLPNMKRGSVV	4.36 ± 0.12
YTVNCCIRANANGAFFSKVQ	3.69 ± 0.053
YVAAGLWVMWTGALKMRQAG	0.954 ± 0.66
YVCTRWVAYYLEWYGLDGPV	0.665 ± 0.45
YVFIYESPYSSRSCPNALVS	-0.011 ± 0.46
YVFSIYGPFLLVEGLSTPFR	4.49 ± 0.095
YVGLV	-0.23 ± 0.22
YVLGEHRIRCGEDYV	1.77 ± 0.31
YVNMAVNLTTDGQMTWNSRT	6.65 ± 0.035
YVNPKVAWAGIDSAAEEDSD	0.047 ± 0.49
YVRYFSIQTGHV	inactive
YVSLNNRQKFLAARLPKLEG	-0.51 ± 0.64
